# Laboratory results: publication PMC3024951 (Molecular Brain, 2011)
# Bridges are numbered along the chain shown (N, C = ends). Where no end group is shown, it is not given here.
# T1: Extracellular IL-6R (interleukin-6 receptor) (UniProt P08887 20-365)
# T1 sequence: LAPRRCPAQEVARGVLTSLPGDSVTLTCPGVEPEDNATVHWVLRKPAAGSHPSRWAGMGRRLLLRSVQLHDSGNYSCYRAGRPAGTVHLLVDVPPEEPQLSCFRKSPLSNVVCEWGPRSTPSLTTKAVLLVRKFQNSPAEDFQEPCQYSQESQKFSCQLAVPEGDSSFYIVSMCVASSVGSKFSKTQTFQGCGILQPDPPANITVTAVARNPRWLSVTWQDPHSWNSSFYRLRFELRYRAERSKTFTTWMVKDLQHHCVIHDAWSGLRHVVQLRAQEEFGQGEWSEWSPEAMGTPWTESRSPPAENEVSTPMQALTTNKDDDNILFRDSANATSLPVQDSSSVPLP
# Tests used:
# [1] = target: Extracellular IL-6R (interleukin-6 receptor) (UniProt P08887)
# [2] = target: T1, Extracellular IL-6R (interleukin-6 …); assay: cell-based or functional assay
# [3] = target: T1, Extracellular IL-6R (interleukin-6 …); assay: ELISA; […] (200 nM), 30 min; […]; settings: both partners purified
# [4] = target: T1, Extracellular IL-6R (interleukin-6 …); assay: ELISA; competitive inhibition: 45 nM biotinylated IL-6 and 1 nM-2 μM protein/peptide with IL-6R coated beads (350 nM) in PBS-BSA, 25°C, 1 h; detected with SA-HRP; settings: both partners purified
binder,measurement,setting,value
LVCYAPLPYTPGTLETGPDDFTCV (disulfide 3-23) [14-L1],"EC50 (ED50), proliferation of DS-1 cells in the absence of IL-6",[1],30 nM
R10-13 (designed binder) LVCYQLLACRPGTLETCPDDFTCVATRHTLGHNLTQYCSHAHAIPTPRARTGCCQTDKCNG,"IC50, inhibition of the IL-6 dependent proliferation of DS-1 cells (IL-6 with IL-6R)",[2],1400 nM
same,Kd,[3],48 ± 8 nM
same,IC50,[4],113 ± 7 nM
R10-15 (designed binder) LVCYQLLACRPGTLETCPDDFTCVATRHTLGHNLTQYCSHAYAIPACETPASCCQTDKCNG,Kd,[3],115 ± 9 nM
same,IC50,[4],102 ± 13 nM
